Data set [1] concerns the molecule itself. The data set can be described thus: crystal structure; SeMet crystals grown from the SeMet-SpLsm2/3 sample; hanging drop, 15°C, 0.1 M Mes pH 6.5, 0.2 M MgCl2, 40% MPD; 2.7 Å, SAD; only SpLsm3 in the crystal.
Data set [2] deals with the molecule itself. The data set can be described thus: AUC; sedimentation equilibrium, 20°C, 20 mM Hepes pH 7.5, 500 mM NaCl; 15,000, 18,000, 25,000 rpm; 0.3-1.5 mg/ml; fitted to a monomer-trimer model (HETEROANALYSIS); monomer to trimer.
Data set [3] concerns the molecule itself. Briefly: AUC; sedimentation velocity, 42000 r.p.m., 20°C, 20 mM Hepes pH 7.5, 100 mM NaCl; 0.75, 1.0 and 1.5 mg/ml; c(S) and c(M) distributions (SEDFIT).

As a reminder, the stoichiometry N is a count of units in the complex or per binding partner.

B1: SpLsm3 from the co-expressed SpLsm2/3 sample (natural protein)
chain: not shown
modifications: SeMet-substituted in the crystal
notes: Lsm3 (Sm-like protein 3), S. pombe, full length; inserted into MCS2 of pETDuet-1, no tag told; The SpLsm3 crystals grew from the SeMet-SpLsm2/3 sample; Residues 1-8 and 56-69 are disordered in the model; also called SeMet-SpLsm3; source: E. coli B834 (DE3), co-expressed with His6-SpLsm2 (pETDuet-1 MCS2), purified (TALON Co2+, Superdex-200)
For the protein B1, the “stoichiometry N” value in data set [1] was 7.

B2: SpLsm4N (C-terminal truncated Lsm4 from S. pombe, residues 1-91) (domain or fragment, UniProt O14352 1-91, looked up)
chain: MLPLTLLNATQGRPILVELKNGETFNGHLENCDNYMNLTLREVIRTMPDGDKFFRLPECYIRGNNIKYLRIQDEVLSQVAKQQAQQRENRG
modifications: SeMet-substituted in the crystal
notes: Lsm4 (Sm-like protein 4), S. pombe, residues 1-91; printed monomer mass 12204 Da; No cleavage of the His6 tag is told for this construct; The model covers residues 12-71; also called N-terminal region of Lsm4; source: E. coli B834 (DE3), purified (TALON Co2+, Superdex-75)
In the case of B2, in data set [2], the “stoichiometry N” value is 3.

B3: SpLsm3 (Lsm3 from S. pombe, expressed alone) (natural protein)
chain: not shown
notes: Lsm3 (Sm-like protein 3), S. pombe, full length; modified pETDuet-1 MCS1 with N-terminal His6-tag followed by a PreScission site; printed monomer mass 11087 Da; source: E. coli B834 (DE3), purified (TALON Co2+, PreScission cleavage, second TALON, Superdex-200); not shown: His6, N-terminal, cleaved
On to B3, for which, in data set [3], the “stoichiometry N” value turned out to be 7.

B4: ScLsm3 (Lsm3 from S. cerevisiae) (natural protein)
chain: METPLDLLKLNLDERVYIKLRGARTLVGTLQAFDSHCNIVLSDAVETIYQLNNEELSESERRCEMVFIRGDTVTLISTPSEDDDGAVEI
notes: Lsm3 (Sm-like protein 3), Saccharomyces cerevisiae; the Lsm3 gene amplified from genomic DNA; printed monomer mass 10450 Da; source: E. coli B834 (DE3), purified (TALON Co2+, PreScission cleavage, second TALON, Superdex-200); not shown: His6, N-terminal, cleaved
For B4, in data set [3], the “stoichiometry N” value is 8.

B5: SpLsm5/6/7 sub-complex (trimeric complex of SpLsm5, SpLsm6 and SpLsm7) (complex)
chain 1: not shown
chain 2: MDSSPNEFLNKVIGKKVLIRLSSGVDYKGILSCLDGYMNLALERTEEYVNGKKTNVYGDAFIRGNNVLYVSALDD
chain 3: MSSLQKRPGPGNSSQPTERPRKESILDLSRYQDQRIQATFTGGRQITGILKGFDQLMNLVLDDVEEQLRNPEDGKLTGAIRKLGLVVVRGTTLVLIAPMDGSEEIPNPFVQAE
modifications: SeMet-substituted in the crystal | SeMet-substituted in the crystal | SeMet-substituted in the crystal
notes: Lsm5 (Sm-like protein 5), S. pombe, full length; Lsm6 (Sm-like protein 6), S. pombe, full length; Lsm7 (Sm-like protein 7), S. pombe, full length; One copy of each subunit (printed mass of this unit 31240 Da); two such trimers form the hexameric ring; source: E. coli B834 (DE3), co-expressed (pETDuet-1 and pACYCDuet-1), purified (TALON Co2+, Superdex-200); copies: 1 + 1 + 1
In the case of B5, the “stoichiometry N” value in data set [3] was 2.

These data come from paper PMC3355152, “Crystal Structures of Lsm3, Lsm4 and Lsm5/6/7 from Schizosaccharomyces pombe” (PLoS ONE, 2012).
